The results in this text go back to patent US20250188176A1.

Substitutions are numbered along the chain they refer to.

B1: AHF21170 (Fab, V domains shown, not shown: small tags and cut ends)
VH: EVQLVESGGDLVKPGGSLRLSCVASGFTFRDYAMTWVRQAPGKGLQWVSLINGSGGKTYYADAVKGRFTISRDNAKNTLYLQMNSLRAEDTAVYYCAVDRLTKTIRPQYYGLWVWGQGTLVTVSS
VL: DIVMTQTPLSLSVSPGETASISCRSSQSLTYSIGYNYLDWYLQKPGQSPQGLIYLGSKRASGVPDRFSGSGSGTDFTLRISRVEANDTGVYYCMQGLQSPLTFGQGTKLEIKR
B2: AHF21171 (Fab, V domains shown, not shown: small tags and cut ends)
VH: B1 VH with V114H
VL: B1 VL with T30L, S57H, T102S
B3: AHF21172 (Fab, V domains shown, not shown: small tags and cut ends)
VH: B1 VH
VL: B1 VL with T30L, S57H
B4: FJ2246MP05A03 (Fab, V domains shown)
VH: B1 VH with F27L, T28P, T35A, N52S
VL: B1 VL with T30L
B5: FJ2246MP06G06 (Parental Fab of TB640_005) (Fab, V domains shown)
VH: B1 VH with N52S
VL: B1 VL with T30L
B6: FJ2246MP10E12 (Fab, V domains shown)
VH: B1 VH with N52S
VL: DIVMTQTPLSLSVSPGETASISCRSSQSLLYSIGYNYLDWYLQKPGQSPQGLIYLGSKRASGVPDRFSGSGSGTDFTLRISRVEAEDTGVYYCMQGLQSPLSFGQGTKLEIK
B7: FJ2246MP06C10 (Fab, V domains shown)
VH: B1 VH
VL: B1 VL with T30L
B8: FJ2246MP05A04 (Fab, V domains shown)
VH: B1 VH with F27L, T28P, N52S
VL: B1 VL with T30L
B9: FJ2246MP07E01 (Fab, V domains shown)
VH: B1 VH with N52S, V114S
VL: B1 VL with T30L
B10: FJ2246MP06D11 (Fab, V domains shown)
VH: B1 VH
VL: B1 VL with T30L
B11: FJ2246MP10G04 (Fab, V domains shown)
VH: B1 VH with N52S
VL: B6 VL
B12: FJ2246MP10D01 (Fab, V domains shown)
VH: B1 VH with N52S
VL: B6 VL with E86D
B13: FJ2246MP06F11 (Fab, V domains shown)
VH: B1 VH with S54D, G56S
VL: B1 VL with T30L
B14: FJ2246MP10A10 (Fab, V domains shown)
VH: B1 VH with N52S
VL: B6 VL with Q98H, S102T
B15: FJ2246MP10B07 (Fab, V domains shown)
VH: B1 VH with N52S
VL: B6 VL with Q98H, S102T
B16: FJ2246MP10B02 (Fab, V domains shown)
VH: B1 VH with N52S
VL: B6 VL with E86N, Q98H, S102T
B17: FJ2246MP06C01 (Fab, V domains shown)
VH: B1 VH with S54N
VL: B1 VL with T30L
B18: FJ2246MP06C02 (Fab, V domains shown)
VH: B1 VH with S54D, G56S, T58V
VL: B1 VL with T30L
B19: FJ2246MP05G01 (Fab, V domains shown)
VH: B1 VH with T28P, Y32F, N52S
VL: B1 VL with T30L
B20: FJ2246MP10H03 (Fab, V domains shown)
VH: B1 VH with N52S
VL: B6 VL with Q98R

The first assay deals with canine IL-4RA (construct not given) (canine). Put plainly: SPR, combinatorial Fab-SASA clone. Background: In SPR one partner is held on a chip, and binding of the other changes the refractive index at the surface.
Regarding B1, the Kd turned out to be 0.94 nM, the off-rate constant (koff) amounted to 0.000138 s⁻¹ and the kon turned out to be 147000 M⁻¹ s⁻¹.

B2: the Kd is 0.47 nM, the koff amounted to 0.000134 s⁻¹ and the kon was 285000 M⁻¹ s⁻¹.

For B3, the Kd amounted to 0.74 nM, the koff was 0.000168 s⁻¹ and the kon was determined as 226000 M⁻¹ s⁻¹.

For a further assay the target is unchanged. Put plainly: SPR, IL-4RA immobilised, periplasmic Fab.
For the molecule B4, the Improvement over parental was 2.3 fold, the RU max amounted to 400 RU and the dissociation rate constant (koff) worked out at 0.000124 s⁻¹.

With B5, the Improvement over parental turned out to be 1 fold, the RU max came to 105 RU and the koff worked out at 0.00028 s⁻¹.

For the molecule B6, the Improvement over parental came out at 2 fold, the RU max came to 251 RU and the koff was 0.000139 s⁻¹.

As for B7, the Improvement over parental worked out at 2.1 fold, the RU max was 135 RU and the koff turned out to be 0.000133 s⁻¹.

Turning to B8, the Improvement over parental worked out at 2 fold, the RU max was found to be 329 RU and the koff came to 0.000142 s⁻¹.

Regarding B9, the Improvement over parental is 2.1 fold, the RU max was found to be 423 RU and the koff was determined as 0.000135 s⁻¹.

For B10, the Improvement over parental was found to be 2.1 fold, the RU max amounted to 146 RU and the koff is 0.000132 s⁻¹.

For the molecule B11, the Improvement over parental came out at 2.1 fold, the RU max was determined as 251 RU and the koff came out at 0.000134 s⁻¹.

Take B12: the Improvement over parental was 2 fold, the RU max came to 283 RU and the koff was found to be 0.000137 s⁻¹.

With B13, the Improvement over parental was 2 fold, the RU max turned out to be 196 RU and the koff was determined as 0.000143 s⁻¹.

Regarding B14, the Improvement over parental came to 2.2 fold, the RU max was 369 RU and the koff amounted to 0.000126 s⁻¹.

For B15, the Improvement over parental amounted to 2.2 fold, the RU max stood at 252 RU and the koff stood at 0.000125 s⁻¹.

Regarding B16, the Improvement over parental was found to be 2.2 fold, the RU max worked out at 202 RU and the koff was 0.000127 s⁻¹.

As to B17, the Improvement over parental is 2.3 fold, the RU max came to 160 RU and the koff came to 0.000122 s⁻¹.

In the case of B18, the Improvement over parental was found to be 2.2 fold, the RU max turned out to be 272 RU and the koff was 0.000126 s⁻¹.

For the molecule B19, the Improvement over parental was found to be 2 fold, the RU max is 344 RU and the off-rate (koff) turned out to be 0.000142 s⁻¹.

In the case of B20, the Improvement over parental worked out at 2.2 fold, the RU max stood at 243 RU and the dissociation rate constant (koff) was determined as 0.000126 s⁻¹.

What is called Kd is a measure of binding affinity in units of concentration. One may read the koff as the first-order rate constant of dissociation. For orientation: kon means a measure of how fast the partners come together.
